Assay [1] concerns the target T1, Rat recombinant TF (Rattus norvegicus, UniProt P42533).
T1 construct: purchased Cloud Clone Corp
T1 sequence (P42533 29-295): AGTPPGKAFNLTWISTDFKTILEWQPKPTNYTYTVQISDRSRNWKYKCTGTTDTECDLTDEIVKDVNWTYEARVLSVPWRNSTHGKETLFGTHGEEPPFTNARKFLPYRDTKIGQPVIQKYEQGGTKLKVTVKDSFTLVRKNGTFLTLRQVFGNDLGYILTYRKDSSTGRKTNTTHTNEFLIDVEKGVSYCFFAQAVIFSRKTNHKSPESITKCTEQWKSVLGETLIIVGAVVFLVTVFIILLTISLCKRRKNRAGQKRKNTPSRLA
Briefly: Plate-based in vitro binding assay of TF-targeting peptides to recombinant TF. The note with it: for absorbance (binding to recombinant TF): 450 nm, coated peptides incubated with 75 ng recombinant TF; for dose response of absorbance with recombinant TF: peptide-coated plates, increasing concentrations of recombinant TF. The method, then:
A plate-based binding assay for the TF-targeting peptides was performed as follows. Peptides were dissolved in water at a concentration of 60 μM and coated onto BD Falcon OptiLux 96-well plates (BD Biosciences, Franklin Lakes, N.J.) by incubating them at 37° C. for 2 hours, then at 4° C. overnight. Next, wells were blocked using Superblock phosphate buffered saline (PBS) blocking buffer (200 μL per well, Thermo Scientific, Waltham, Mass.) for 2 hours at room temperature, then washed two times with water. Rat recombinant TF (Cloud Clone Corp, Houston, Tex.) was added in amounts of 12.5-75.0 ng, dissolved in PBS for a total volume of 50 μL/well and incubated at room temperature for 4 hours. Plates were rinsed with water twice, then blocked with Superblock PBS blocking buffer for 30 minutes at room temperature. Colorimetric immunodetection was then performed by incubating wells with anti-TF antibody (Cat. #: ab104513, rabbit polyclonal, Abcam, Cambridge, Mass.) dissolved in Superblock PBS blocking buffer (1:5000) at 4° C. overnight. Wells were washed in water 4 times, and then incubated with a secondary goat-anti-rabbit antibody (Thermo scientific, Rockford, Ill.) conjugated to horseradish peroxidase and dissolved 1:5000 in Superblock PBS blocking buffer for 2 hours at room temperature. Wells were then rinsed 4 times in water, developed using TMB developing solution (TMB Substrate, Thermo Scientific, Waltham, Mass.) for 15 minutes, then stopped with 0.18 M H2SO4 (Sigma Aldrich, St. Louis, Mo.). Plates were immediately read using an Epoch plate reader (BioTek, Winooski, Vt.) at 450 nm. Wells were coated in triplicate, and the assay was performed three times. Treatment groups were each peptide as stated above. Negative controls were wells coated with blocking buffer rather than peptide, and positive controls were wells coated with rat recombinant TF (Cloud Clone Corp) at 12.5 and 25 ng/well.

Assay [2] has as its system Sprague Dawley rats. Briefly: Liver punch hemorrhage model, blood loss. The settings on record: % total blood volume, rat liver punch model, 30 minutes, 2.5 mg PA by tail vein. The format is in vivo. The procedure: (§1) At the end of 30 minutes, animals were euthanized.
Blood loss was presented as % total blood volume. […] Data were log transformed for analysis.

Assay [3] concerns injured liver. Briefly: Fluorescent microscopy of nanofiber binding in liver and other organs after liver punch injury. The assay is classed as in vivo. The note with it: rat liver punch model, tail vein injection, fluorescently labeled nanofiber. The procedure: as §1
In situ perfusion with 400 mL of a PBS solution was performed, and organs including the kidneys, spleen, lung, uninjured liver, and injured lobe of the liver were collected for tissue processing. Samples were fixed in 2% paraformaldehyde for 2 hours, then 30% sucrose overnight. Samples were then frozen in Tissue-Tek OTC compound (Sakura Finetek, Torrance, Calif.) over liquid nitrogen and stored at −20° C. A LEICA CM 1950 cryostat (LEICA Biosystems, Buffalo Grove, Ill.) was used to cut samples into 10-μm sections, which were stained with 4′,6-diamidino-2-phenylindole (DAPI, Invitrogen, Grand Island, N.Y.), and fixed with ProLong® Gold antifade reagent (Life Technologies, Eugene, Oreg.). […]
Digital images were acquired using a Zeiss LSM-510 microscope (Hallbergmoos, Germany) with a 20× objective. The HE CY3 filter (Zeiss filter #43) using excitation and emission wavelength 550-575 nm and 605-670 nm, respectively, was used to assess PA fluorescence. […] The green fluorescent protein filter (Zeiss filter #38) using excitation and emission wavelengths of 470-495 nm and 525-550 nm, respectively, was used to assess tissue auto-fluorescence.

No end group written: not given here. *: point of attachment. Dodecyl = CCCCCCCCCCCC*

As to RTLAFVRFK, in assay [1], the “absorbance (binding to recombinant TF)” value is on record as 0.28±0.03 and the “dose response of absorbance with recombinant TF” value is on record as “increased absorbance with increasing concentrations of recombinant TF”.

In assay [2], “KKAAVV(K)-C12 (KKAAVVK(Dodecyl)-NH2; not fully specified; printed as KKAAVV(K)-C12) [non-specific PA nanofiber]” had a total blood loss of 21±2%. In addition, in assay [3], the “fluorescence in injured liver” value is reported as “No fluorescence was observed”.

Regarding “A2V2K2—C12 (KKAAVVK) [non-specific peptide, non-specific peptide, consisting of the filler peptide, selected as a non-targeted control]”, the “absorbance (binding to recombinant TF)” value in assay [1] is 0.2±0.03.

EGRNCETHKDDQL: in assay [1], the “absorbance (binding to recombinant TF)” value was 0.19±0.3.

With RLMTQDCLQQRSK, in assay [1], the “absorbance (binding to recombinant TF)” value amounted to 0.29±0.02 and the “dose response of absorbance with recombinant TF” value is on record as “increased absorbance with increasing concentrations of recombinant TF”.

B1: recombinant TF: rat recombinant tissue factor (Cloud Clone Corp) coated on wells as positive control (protein)
chain: AGTPPGKAFNLTWISTDFKTILEWQPKPTNYTYTVQISDRSRNWKYKCTGTTDTECDLTDEIVKDVNWTYEARVLSVPWRNSTHGKETLFGTHGEEPPFTNARKFLPYRDTKIGQPVIQKYEQGGTKLKVTVKDSFTLVRKNGTFLTLRQVFGNDLGYILTYRKDSSTGRKTNTTHTNEFLIDVEKGVSYCFFAQAVIFSRKTNHKSPESITKCTEQWKSVLGE
On to B1, for which the “absorbance (binding to recombinant TF)” value in assay [1] was 0.32±0.01.

Values taken from patent publication US10738294B2, “Tissue factor (TF)—targeted nanotherapy” (Northwestern University, priority 2016, dated 2020).
